In patent US20220088190A1 (University of Pennsylvania, published 2022):

How the values were obtained:
HLA-A*11:01 = target: T1, HLA-A*11:01 (human); experiment: peptide-MHC binding, competitive fluorescence polarization assay
T1 construct: the construct is not described

[1] = target: T2, HLA-A*11:01 expressed on monoallelic K562 RAS TMG cells (human); experiment: HLA class I immunoprecipitation, peptide elution and tandem MS/MS from monoallelic K562 RAS TMG cells (FIG. 8E)
T2 construct: also called K562-A*11:01

[2] = target: T3, HLA-A*03:01 expressed on monoallelic K562 RAS TMG cells (human); experiment: HLA class I immunoprecipitation, peptide elution and tandem MS/MS from monoallelic K562 RAS TMG cells (FIG. 8D)
T3 construct: also called K562-A*03:01

[3] = target: T2, HLA-A*11:01 expressed on monoallelic …; experiment: HLA class I immunoprecipitation, peptide elution and tandem MS/MS from monoallelic K562 RAS TMG cells (FIG. 8I)
HLA-B*07:02 = target: T4, HLA-B*07:02 (human); experiment: peptide-MHC binding, competitive fluorescence polarization assay
T4 construct: the construct is not described

[4] = target: T5, HLA-B*07:02 expressed on monoallelic K562 RAS TMG cells (human); experiment: HLA class I immunoprecipitation, peptide elution and tandem MS/MS from monoallelic K562 RAS TMG cells (FIG. 8J)
T5 construct: also called K562-B*07:02

[5] = target: T3, HLA-A*03:01 expressed on monoallelic …; experiment: HLA class I immunoprecipitation, peptide elution and tandem MS/MS from monoallelic K562 RAS TMG cells (FIG. 8A)
[6] = target: T2, HLA-A*11:01 expressed on monoallelic …; experiment: HLA class I immunoprecipitation, peptide elution and tandem MS/MS from monoallelic K562 RAS TMG cells (FIG. 8F)
HLA-A*03:01 = target: T6, HLA-A*03:01 (human); experiment: peptide-MHC binding, competitive fluorescence polarization assay
T6 construct: the construct is not described

[7] = target: T3, HLA-A*03:01 expressed on monoallelic …; experiment: HLA class I immunoprecipitation, peptide elution and tandem MS/MS from monoallelic K562 RAS TMG cells (FIG. 8C)
[8] = target: T2, HLA-A*11:01 expressed on monoallelic …; experiment: HLA class I immunoprecipitation, peptide elution and tandem MS/MS from monoallelic K562 RAS TMG cells (FIG. 8G)

B1: mRAS peptide VV_D (RAS G12D), VVGADGVGK (peptide)
peptide: VVGADGVGK
notes: 9-mer mutant RAS short peptide; also called D-9
- binding result (HLA-A*11:01): binds
- binding result [1]: binds

B2: mRAS peptide VV_R (RAS G12R), VVGARGVGK (peptide)
peptide: VVGARGVGK
notes: 9-mer mutant RAS short peptide; also called R-9
- binding result (HLA-A*11:01): binds
- binding result [2]: binds
- binding result [3]: binds

B3: mRAS peptide VV_C (RAS G12C), VVGACGVGK (peptide)
peptide: VVGACGVGK
notes: 9-mer mutant RAS short peptide; also called C-9
- binding result (HLA-A*11:01): binds

B4: mRAS peptide GA_R (RAS G12R), GARGVGKSAL (peptide)
peptide: GARGVGKSAL
notes: 10-mer mutant RAS short peptide; also called R-10 (B*07:02 panel)
- binding result (HLA-B*07:02): binds
- binding result [4]: binds

B5: mRAS peptide VVV_D (RAS G12D), VVVGADGVGK (peptide)
peptide: VVVGADGVGK
notes: 10-mer mutant RAS short peptide; also called D-10
- binding result (HLA-A*11:01): binds
- binding result [5]: binds
- binding result [6]: binds

B6: mRAS peptide VVV_V (RAS G12V), VVVGAVGVGK (peptide)
peptide: VVVGAVGVGK
notes: 10-mer mutant RAS short peptide; also called V-10
- binding result (HLA-A*03:01): binds
- binding result (HLA-A*11:01): binds
- binding result [7]: binds
- binding result [8]: binds

B7: mRAS peptide VVV_R (RAS G12R), VVVGARGVGK (peptide)
peptide: VVVGARGVGK
notes: 10-mer mutant RAS short peptide; also called R-10
- binding result (HLA-A*03:01): binds
- binding result (HLA-A*11:01): binds
